PMC2151542

Molecular target: MthK channel (Methanobacterium thermoautotrophicum) (UniProt O27564)
Assay: single-channel recording in planar lipid bilayers

Q: How did the Kd turn out when “charybdotoxin (from UniProt P13487 23-59) (peptide)” was run?
A: 1 nM
